Key:
混合人源IL-4、IL-5 (human) = 混合人源IL-4、IL-5 (human) (UniProt P05112); test: cell-based or functional assay
IL-4Rα [1] = molecular target: IL-4Rα (UniProt P24394); test: cell-based or functional assay
IL-5 (human) = IL-5 (human) (UniProt P05113); test: cell-based or functional assay
IL-4Rα [2] = molecular target: IL-4Rα (UniProt P24394); test: blocking ELISA: IL-4Rα coated, biotin-IL-4; hIgG is the control, fitted value as printed

EC50, IL4:IL5=1:1混合诱导TF-1增殖, 板7 (混合人源IL-4、IL-5 (human)) [nM]	EC50, IL4:IL5=1:2混合诱导TF-1增殖, 板9 (混合人源IL-4、IL-5 (human)) [nM]	EC50, IL4:IL5=1:3混合诱导TF-1增殖, 板11 (混合人源IL-4、IL-5 (human)) [nM]	EC50, IL4:IL5=1:4混合诱导TF-1增殖, 板13 (混合人源IL-4、IL-5 (human)) [nM]	EC50, IL4:IL5=2:1混合诱导TF-1增殖, 板5 (混合人源IL-4、IL-5 (human)) [nM]	EC50, IL4:IL5=3:1混合诱导TF-1增殖, 板3 (混合人源IL-4、IL-5 (human)) [nM]	EC50, IL4:IL5=4:1混合诱导TF-1增殖, 板1 (混合人源IL-4、IL-5 (human)) [nM]	试验窗口, IL4:IL5=1:1混合诱导TF-1增殖, 板7 (混合人源IL-4、IL-5 (human))	试验窗口, IL4:IL5=1:2混合诱导TF-1增殖, 板9 (混合人源IL-4、IL-5 (human))	试验窗口, IL4:IL5=1:3混合诱导TF-1增殖, 板11 (混合人源IL-4、IL-5 (human))	试验窗口, IL4:IL5=1:4混合诱导TF-1增殖, 板13 (混合人源IL-4、IL-5 (human))	试验窗口, IL4:IL5=2:1混合诱导TF-1增殖, 板5 (混合人源IL-4、IL-5 (human))	试验窗口, IL4:IL5=4:1混合诱导TF-1增殖, 板1 (混合人源IL-4、IL-5 (human))	EC50, IL4:IL5=1:1混合诱导TF-1增殖, 板8 (混合人源IL-4、IL-5 (human)) [nM]	EC50, IL4:IL5=1:2混合诱导TF-1增殖, 板10 (混合人源IL-4、IL-5 (human)) [nM]	EC50, IL4:IL5=1:3混合诱导TF-1增殖, 板12 (混合人源IL-4、IL-5 (human)) [nM]	EC50, IL4:IL5=3:1混合诱导TF-1增殖, 板4 (混合人源IL-4、IL-5 (human)) [nM]	EC50, IL4:IL5=4:1混合诱导TF-1增殖, 板2 (混合人源IL-4、IL-5 (human)) [nM]	试验窗口, IL4:IL5=1:1混合诱导TF-1增殖, 板8 (混合人源IL-4、IL-5 (human))	试验窗口, IL4:IL5=1:2混合诱导TF-1增殖, 板10 (混合人源IL-4、IL-5 (human))	Substance	other results
14.9	0.00104	0.00147	1.1	2.94	0.00132	0.0013	1.11 倍	1.06 倍	1.01 倍	1.14 倍	0.99 倍	1.02 倍								Mepolizumab (antibody)	试验窗口, IL4:IL5=3:1混合诱导TF-1增殖, 板3 (混合人源IL-4、IL-5 (human)): 1.05 倍
0.57	0.899	0.343	0.156	0.452	0.448	0.813	1.77 倍	1.68 倍	1.53 倍	1.58 倍	1.6 倍	1.77 倍								dupilumab (antibody)	
													1.73	1.96	0.88	0.965	0.825	1.92 倍	1.62 倍	Dupilumab+Mepolizumab(1:1混合)	EC50, IL4:IL5=1:4混合诱导TF-1增殖, 板14 (混合人源IL-4、IL-5 (human)): 0.395 nM; EC50, IL4:IL5=2:1混合诱导TF-1增殖, 板6 (混合人源IL-4、IL-5 (human)): 1.28 nM; 试验窗口, IL4:IL5=1:3混合诱导TF-1增殖, 板12 (混合人源IL-4、IL-5 (human)): 1.76 倍; 试验窗口, IL4:IL5=1:4混合诱导TF-1增殖, 板14 (混合人源IL-4、IL-5 (human)): 1.79 倍; 试验窗口, IL4:IL5=2:1混合诱导TF-1增殖, 板6 (混合人源IL-4、IL-5 (human)): 1.76 倍; 试验窗口, IL4:IL5=3:1混合诱导TF-1增殖, 板4 (混合人源IL-4、IL-5 (human)): 1.67 倍; 试验窗口, IL4:IL5=4:1混合诱导TF-1增殖, 板2 (混合人源IL-4、IL-5 (human)): 1.68 倍

The remaining lines, values behind:

Substance	EC50, IL4:IL5=1:1混合诱导TF-1增殖, 板7 (混合人源IL-4、IL-5 (human)) [nM]	EC50, IL4:IL5=1:2混合诱导TF-1增殖, 板9 (混合人源IL-4、IL-5 (human)) [nM]	EC50, IL4:IL5=1:3混合诱导TF-1增殖, 板11 (混合人源IL-4、IL-5 (human)) [nM]	EC50, IL4:IL5=1:4混合诱导TF-1增殖, 板13 (混合人源IL-4、IL-5 (human)) [nM]	EC50, IL4:IL5=2:1混合诱导TF-1增殖, 板5 (混合人源IL-4、IL-5 (human)) [nM]	EC50, IL4:IL5=3:1混合诱导TF-1增殖, 板3 (混合人源IL-4、IL-5 (human)) [nM]	EC50, IL4:IL5=4:1混合诱导TF-1增殖, 板1 (混合人源IL-4、IL-5 (human)) [nM]	试验窗口, IL4:IL5=1:1混合诱导TF-1增殖, 板7 (混合人源IL-4、IL-5 (human))	试验窗口, IL4:IL5=1:2混合诱导TF-1增殖, 板9 (混合人源IL-4、IL-5 (human))	试验窗口, IL4:IL5=1:3混合诱导TF-1增殖, 板11 (混合人源IL-4、IL-5 (human))	试验窗口, IL4:IL5=1:4混合诱导TF-1增殖, 板13 (混合人源IL-4、IL-5 (human))	试验窗口, IL4:IL5=2:1混合诱导TF-1增殖, 板5 (混合人源IL-4、IL-5 (human))	试验窗口, IL4:IL5=4:1混合诱导TF-1增殖, 板1 (混合人源IL-4、IL-5 (human))	EC50, IL4:IL5=1:1混合诱导TF-1增殖, 板8 (混合人源IL-4、IL-5 (human)) [nM]	EC50, IL4:IL5=1:2混合诱导TF-1增殖, 板10 (混合人源IL-4、IL-5 (human)) [nM]	EC50, IL4:IL5=1:3混合诱导TF-1增殖, 板12 (混合人源IL-4、IL-5 (human)) [nM]	EC50, IL4:IL5=3:1混合诱导TF-1增殖, 板4 (混合人源IL-4、IL-5 (human)) [nM]	EC50, IL4:IL5=4:1混合诱导TF-1增殖, 板2 (混合人源IL-4、IL-5 (human)) [nM]	试验窗口, IL4:IL5=1:1混合诱导TF-1增殖, 板8 (混合人源IL-4、IL-5 (human))	试验窗口, IL4:IL5=1:2混合诱导TF-1增殖, 板10 (混合人源IL-4、IL-5 (human))	other results
hIgG (antibody)																					EC50, 中和IL-4诱导的TF-1细胞增殖 (control) (IL-4Rα [1]): 0.375 nM; EC50, 中和IL-13诱导的TF-1细胞增殖 (control) (IL-4Rα [1]): 0.131 nM; EC50, 中和IL-5诱导的TF-1细胞增殖 (control) (IL-5 (human)): 0.108 nM; EC50 (IL-4Rα [2]): 2.04 nM
Human IgG1,kappa Isotype Control (antibody)														14.7	0.00264	0.00193	0.000915	0.105	1.07 倍	0.99 倍	试验窗口, IL4:IL5=1:3混合诱导TF-1增殖, 板12 (混合人源IL-4、IL-5 (human)): 0.95 倍; 试验窗口, IL4:IL5=1:4混合诱导TF-1增殖, 板14 (混合人源IL-4、IL-5 (human)): 1.03 倍; 试验窗口, IL4:IL5=2:1混合诱导TF-1增殖, 板6 (混合人源IL-4、IL-5 (human)): 0.99 倍; 试验窗口, IL4:IL5=3:1混合诱导TF-1增殖, 板4 (混合人源IL-4、IL-5 (human)): 1.02 倍; 试验窗口, IL4:IL5=4:1混合诱导TF-1增殖, 板2 (混合人源IL-4、IL-5 (human)): 1.01 倍

— patent CN117138036A
